Patent US20150079657, “TARGETED HISTONE ACETYLATION” (SIGMA-ALDRICH CO. LLC, published 2015)

Experiments:
ZF(Oct4+181)-p300 = ZF(Oct4+181)-p300 (Artificial Sequence); assay: cell_activity; OCT4 mRNA activation in HEK293, 48 h; H3K18 and H3K27 acetylation also increased by ChIP (FIG. 1); conditions: tags: C-terminal fusion to human p300 HAT domain aa 1284-1673 (NM_001429)
Description: Expression vectors encoding ZF(Oct4+181)-p300 or one of the control fusion proteins described above were transfected into HEK 293 cells. Control cells were transfected with vectors encoding GFP, p65 (no ZF), or p300 (no ZF). After 48 hrs, the cells were harvested and total RNA was isolated. The levels of OCT4 mRNA and cyclophilin A (i.e., PPIA) endogenous control mRNA were measured by real time reverse transcriptase polymerase chain reaction (RT-PCR) (Life Technologies, Carlsbad, Calif.). The OCT4/cyc ratio was used for normalizing OCT4 expression.

ZF6961 (ZF(PEDF))-p300 = ZF6961 (ZF(PEDF))-p300 (Artificial Sequence); assay: cell_activity; PEDF mRNA activation in HEK293, 72 h; conditions: tags: fusion to human p300 HAT domain aa 1284-1673
Description: Expression vectors encoding ZF(PEDF)-p300 or ZF(PEDF)-p65 were transfected into HEK 293 cells. Control cells were transfected with vectors encoding GFP, p65 (no ZF), or p300 (no ZF). Total RNA was isolated 72 hours later, and the levels of PEDF mRNA and cyclophilin A endogenous control mRNA were measured by RT-PCR. The PEDF/cyc ratio was used for normalizing PEDF expression.

ZF6961 (ZF(PEDF))-p300 (Artificial Sequence), sequence (chain, as listed by the source): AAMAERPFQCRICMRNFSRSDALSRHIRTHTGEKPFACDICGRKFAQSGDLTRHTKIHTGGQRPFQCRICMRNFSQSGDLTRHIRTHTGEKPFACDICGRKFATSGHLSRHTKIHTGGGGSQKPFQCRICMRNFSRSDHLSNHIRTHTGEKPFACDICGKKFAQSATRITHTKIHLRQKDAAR
ZF(Oct4+181)-p300 (Artificial Sequence), sequence (chain, as listed by the source): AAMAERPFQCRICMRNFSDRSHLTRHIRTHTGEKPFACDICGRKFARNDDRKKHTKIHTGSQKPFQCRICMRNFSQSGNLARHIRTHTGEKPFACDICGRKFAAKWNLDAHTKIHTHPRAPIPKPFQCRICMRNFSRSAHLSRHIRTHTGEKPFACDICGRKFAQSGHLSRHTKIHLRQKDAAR

B1: OCT4 +181 target site (dsDNA)
DNA 1: GGAGGGCCAGGAATCGGGC
DNA 2: GCCCGATTCCTGGCCCTCC
- activity (ZF(Oct4+181)-p300): > 25 fold

B2: PEDF -92 target site (dsDNA)
DNA 1: GGATGGTGGTGCAGCAGTG
DNA 2: CACTGCTGCACCACCATCC
- activity (ZF6961 (ZF(PEDF))-p300): > 2.5 fold
